Laboratory results as given in publication PMC5454376, “Molecular mechanism of Gαi activation by non-GPCR proteins with a Gα-Binding and Activating motif” (Nature Communications, 2017).

B1: Human His-Gαi3 WT [human] / Fluorescein-labelled DAPLE peptide (residues 1,662–1,695) [modified: 5,6-carboxyfluorescein coupled to the resin-bound peptide after chain elongation; 5,6-carboxyfluorescein coupled to the … (parent)
chain 1: MGCTLSAEDKAAVERSKMIDRNLREDGEKAAKEVKLLLLGAGESGKSTIVKQMKIIHEDGYSEDECKQYKVVVYSNTIQSIIAIIRAMGRLKIDFGEAARADDARQLFVLAGSAEEGVMTPELAGVIKRLWRDGGVQACFSRSREYQLNDSASYYLNDLDRISQSNYIPTQQDVLRTRVKTTGIVETHFTFKDLYFKMFDVGGQRSERKKWIHCFEGVTAIIFCVALSDYDLVLAEDEEMNRMHESMKLFDSICNNKWFTETSIILFLNKKDLFEEKIKRSPLTICYPEYTGSNTYEEAAAYIQCQFEDLNRRKDTKEIYTHFTCATDTKNVQFVFDAVTDVIIKNNLKECGLY
chain 2: SASPSSEMVTLEEFLEESNRSSPTHDTPSCRDDL
B2: Human His-Gαi3 WT [human] / Fluorescein-labelled GIV peptide (residues 1,671–1,701) [modified: 5,6-carboxyfluorescein coupled to the resin-bound peptide after chain elongation; 5,6-carboxyfluorescein coupled to the resin-bound … (parent)
chain 1: B1 chain 1
chain 2: KTGSPGSEVVTLQQFLEESNKLTSVQIKSSS
B3: Human His-Gαi3 WT [human] / Fluorescein-labelled RGS12 GoLoco peptide (residues 1,185–1,221) [modified: 5,6-carboxyfluorescein coupled to the resin-bound peptide after chain elongation; 5,6-carboxyfluorescein coupled to the … (parent)
chain 1: B1 chain 1
chain 2: DEAEEFFELISKAQSNRADDQRGLLRKEDLVLPEFLR

Variants of: B1
Assay: fluorescence polarisation
Settings: with Fluorescein-labelled DAPLE peptide (residues 1,662–1,695) [modified: 5,6-carboxyfluorescein coupled to the resin-bound peptide after chain elongation

| ratio to parent | Variant |
| --- | --- |
| 2 | chain 1 F259A |

Variants of: B2
Assay: fluorescence polarisation
Settings: with Fluorescein-labelled GIV peptide (residues 1,671–1,701) [modified: 5,6-carboxyfluorescein coupled to the resin-bound peptide after chain elongation

| Variant | ratio to parent | Kd [µM] |
| --- | --- | --- |
| chain 1 N256A | 2.11 |  |
| chain 1 L39A | 5.3 |  |
| chain 1 I184A | 3.28 |  |
| chain 1 L37A | 0.822 |  |
| chain 1 F215A | > 20 | > 10 |
| chain 1 L36A | 1.22 |  |
| chain 1 K257A | 1.77 |  |
| chain 1 K35A | > 20 | > 10 |
| chain 1 F259A | 2.57 |  |
| chain 1 G42R | 0.649 | 0.377 |
| chain 1 L249H | 7.58 |  |
| chain 1 L249V | 2.35 |  |

Results, then the variant that gave them:

| ratio to parent | Kd [µM] | Variant |
| --- | --- | --- |
| 3.59 |  | chain 1 W258F |
| > 40 | > 20 | chain 1 N256E |
| > 40 | > 20 | chain 1 W211A |
| 0.623 |  | chain 1 V218A |
| 0.417 |  | chain 1 S252A |
| 5.32 |  | chain 1 S252D |

Variants of: B3
Assay: fluorescence polarisation
Settings: with Fluorescein-labelled RGS12 GoLoco peptide (residues 1,185–1,221) [modified: 5,6-carboxyfluorescein coupled to the resin-bound peptide after chain elongation

| Variant | ratio to parent | Kd [µM] |
| --- | --- | --- |
| chain 1 I184A | 1.53 |  |
| chain 1 K257A | 1.58 |  |
| chain 1 F215A | 10.1 |  |
| chain 1 L39A | 3.23 |  |
| chain 1 K35A | 2.79 |  |
| chain 1 L249H | 4.89 |  |
| chain 1 L249V | 1.54 |  |
| chain 1 L37A | 1.46 |  |
| chain 1 L36A | 2.18 |  |
| chain 1 F259A | 3.43 |  |
| chain 1 G42R | 1.81 | 0.098 |

Further lines, results first:

| ratio to parent | Kd [µM] | Variant |
| --- | --- | --- |
| 1.15 |  | chain 1 W258F |
| 1.11 |  | chain 1 W211A |
| 1.92 |  | chain 1 V218A |
| 1.42 |  | chain 1 N256A |
| 5.78 |  | chain 1 N256E |
| 0.644 |  | chain 1 S252A |
| 6.17 |  | chain 1 S252D |
